Results on 19 molecules are retold here after patent US20210292393A1 (published 2021).

Sequences and labels used below:
B1: antibody 311 (antibody, V domains shown)
VH: QVQLQESGPGLVKPSETLSLTCTVSGYSISSGYYWGWIRQPPGKGLEWIGSIYHSGSTYYNPSLKSRVTISVDTSKNQFSLKLSSVTAADTAVYYCAREETLGSSWYESYIDYWGQGTLVTVSS
VL: SYVLTQPPSVSVAPGKTARITCGGNNIGSKSVHWYQQKPGQAPVLVIYYDSDRPSGIPERFSGSNSGNTATLTISRVEAGDEADYYCQVWDSSSDHPRVFGGGTKLTVL
B2: antibody 312 (antibody, V domains shown)
VH: QVQLVQSGAEVKKPGASVKVSCKASGYTFTSYGISWVRQAPGQGLEWMGWISAYNGNTNYAQKLQGRVTMTTDTSTSTAYMELRSLRSDDTAVYYCARMLIAAAGTSRDYYGMDVWGQGTTVTVSS
VL: not shown
B3: antibody 451 (antibody, V domains shown)
VH: EVQLVESGGGLVQPGGSLRLSCAASGFTFSTYWMSWVRQAPGKGLEWVANIKQDGSEKYYVDSVKGRFTISRDNAKNSLYLQMNSLRAEDTAVYYCARLGGSSWYFDYWGQGTLVTVSS
VL: not shown
B4: antibody 438 (antibody, V domains shown)
VH: EVQLVESGGGLVQPGGSLRLSCAASGFTFSSYSMNWVRQAPGKGLEWVSYISSSSSTIYYADSVKGRFTISRDNAKNSLYLQMNSLRAEDTAVYYCARDRGYSDYGPYYYGMDVWGQGTTVTVSS
VL: not shown
B5: antibody 440 (antibody, V domains shown)
VH: EVQLLESGGGLVQPGGSLRLSCAASGFTFSSYAMSWVRQAPGKGLEWVSAISGSGVNTYHADSVKGRFTISRDNSRNTLYLQMSSLTAEDTAAYYCAKDFEAASGAYYYYGMDVWGQGTTVTVSS
VL: SYELTQPPSVSVSPGQTARITCSGDALPDQYAYWYQQKPGQAPVVVIYKDRERPSGIPERFSGSNSGTTVTLTISGVQAEDEADYYCQSADSSATYVVFGGGTKLTVL
B6: antibody 441 (antibody, V domains shown)
VH: EVQLVESGGGVVRPGGSLRLSCAASGFTFGDYGMSWVRQAPGKGLEWVSGINWNGGSTGYADSVKGRFTISRDNAKNSLYLQMNSLRAEDTALYYCASDLVRGVIGFDYWGQGTLVTVSS
VL: B5 VL with D29K, V45L, R51S, N65S, A94G, T95I, Y96T, V97G
B7: antibody 453 (antibody, V domains shown)
VH: QVQLVESGGGVVQPGRSLRLSCAASGFTFSSYAMYWVRQAPGKGLEWVAVISYDGSNKYYADSVKGRFTISRDNSKNTLYLQMNSLRAEDTAVYYCARDRPHYYGSGRKILNLYGMDVWGQGTTVTVSS
VL: DIQLTQSPSFLSASVGDRVTITCRASQGISSYLAWYQQKPGKAPKLLIYAASTLQSGVPSSFSGSGSGTEFTLTISSLQPEDFATYYCQQLNSYPPFTFGPGTKVDIK
B8: antibody 449 (antibody, V domains shown)
VH: not shown
VL: QSALTQPASVSGSPGQSITISCTGTSSDVGGYNYVSWYQQHPGKAPKLMIYEVSNRPSGVSNRFSGSKSGNTASLTISGLQAEDEADYYCSSYTSSSTVVFGGGTKLTVL
B9: antibody 433 (antibody, V domains shown)
VH: QVQLVESGGGVVQPGRSLRLSCAASGFTFSSYAMHWVRQAPGKGLEWVAVISYDGSNKYYADSVKGRFTISRDNSKNTLYLQMNSLRAEDTAVYYCAKDYEVVIAIGGPGAFDYWGQGTLVTVSS
VL: SYVLTQPPSVSVAPGKTARITCGGNNIGSKSVHWYQQKPGQAPVLVIYYDSDRPSGIPERFSGSNSGNTATLTISRVEAGDEADYYCQVWDSSSDHVVFGGGTKLTVL
B10: antibody 448 (antibody, V domains shown)
VH: QVQLVQSGAEVKKPGASVKVSCKASGYTFTSYGISWVRQAPGQGLEWMGWISAYNGNTNYAQKLQGRVTMTTDTSTSTAYMELRSLRSDDTAVYYCAIELLEGFYYYYGMDVWGQGTTVTVSS
VL: SYELTQPPSVSVSPGQTARITCSGDALPKQYAYWYQQKPGQAPVLVIYKDSERPSGIPERFSGSSSGTTVTLTISGVQAEDEADYYCQSADSSGTYPYVVFGGGTKLTVL
B11: antibody 461 (antibody, V domains shown)
VH: EVQLVESGGGLVKPGGSLRLSCAASGFTFSSYSMNWVRQAPGKGLEWVSSISSSSSYIYYADSVKGRFTISRDNAKNSLYLQMNSLRAEDTAVYYCASNPAAGQEAYYYYGMDVWGQGTTVTVSS
VL: not shown
B12: antibody 458 (antibody, V domains shown)
VH: QVQLVESGGGVVQPGRSLRLSCAASEFTFATYAMHWVRQAPGKGLEWVALISQDGSNKHYADSVKGRFTISRDNSKNTLYLQMNSLRAEGTAIYYCARESLEAAGPPFDYWGQGTLVTVSS
VL: SYELTQPPSVSVSPGQTATIICSGDKLGEKYASWYQQKPGQSPALVIYQDRKRPSGIPERFSGSNSGNTATLTISGTQAMDEADYYCQAWDSSNSVVFGGGTKLTVP
B13: antibody 430 (antibody, V domains shown)
VH: QVHLVEAGGGVVQPGKSLRLSCAASGFIFSNFGMHWVRQSPGKGLEWVAVVSYDASVTKYSDSFEGRFTISRDNSKNTLYLQMDSLRPEDSAVYYCAKGQGANLLHDWGQGILVTVSS
VL: DVVLTQSPLSLPVTLGQPASISCRSSESLVYTDGDTYLHWFHQRPGQSPRRLIYKVSNRDSGVPDRFSGSGSGTDFTLRISRVEAEDVGVYYCMQGTHWPFTFGPGTKVDIK
B14: antibody 455 (antibody, V domains shown)
VH: QVQLVQSGAEVKKPGSSVKVSCKASGGTFSSYAISWVRQAPGQGLEWMGRIIPILGIANYAQKFQGRVTITADKSTSTAYMELSSLRSEDTAVYYCARDSIVVPAAIISGYYYYGMDVWGQGTTVTVSS
VL: QSVLTQPPSVSAAPGQKVTISCSGSSSNIGNNYVSWYQQLPGTAPKLLIYDNNKRPSGIPDRFSGSKSGTSATLGITGLQTGDEADYYCGTWDSSLSAGRVFGGGTKLTVL
B15: antibody 404 (antibody, V domains shown)
VH: QVQLVESGGGVVQPGRSLRLSCAASGFTFSSYGMHWVRQAPGKGLEWVAVIWYDGSNKYYADSVKGRFTISRDNSKNTLYLQMNSLRAEDTAVYYCARLAVDISFDGSDGMDVWGQGTTVTVSS
VL: SYELTQPPSVSVSPGQTARITCSGDALPKKYAYWYQQKSGQAPVLVIYEDSKRPSGIPERFSGSSSGTMATLTISGAQVEDEADYYCYSTDSSGKGVFGTGTKVTVL
B16: antibody 410 (antibody, V domains shown)
VH: QVQLVQSGAEVKKPGASVKVSCKASGYTFTSYGISWVRQAPGQGLEWMGWISAYNGNTNYAQKLQGRVTMTTDTSTSTAYMELRSLRSDDTAVYYCARGRITIFGVEYYYGMDVWGQGTTVTVSS
VL: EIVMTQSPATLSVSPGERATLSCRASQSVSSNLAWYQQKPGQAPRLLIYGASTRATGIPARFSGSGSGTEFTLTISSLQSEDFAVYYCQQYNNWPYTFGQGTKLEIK
B17: antibody 401 (antibody, V domains shown)
VH: QVQLVQSGAEVKKPGSSVKVSCKASGGTFSSYAISWVRQAPGQGLEWMGRIIPILGIANYAQKFQGRVTIIADKSTSTAYMELSSLRSEDKAVYYCAREGKSDSSSALWYFDLWGRGTLVTVSP
VL: not shown
B18: antibody 399 (antibody, V domains shown)
VH: QVQLVQSGAEVKKPGASVKVSCKASGYTFTSYGISWVRQAPGQGLEWMGWISAYNGNTNYAQKLQGRVTMTTDTSTSTAYMELRSLRSDDTAVYYCARDSGYDWAGGHYYYYGMDVWGQGTTVTVSS
VL: QSALTQPASVSGSPGQSITISCTGTSSDVGGYNYVSWYQQHPGKAPKLMIYEVSNRPSGVSNRFSGSKSGNTASLTISGLQAEDEADYYCSSYTSSSTLVVFGGGTKLTVL
B19: antibody 402 (antibody, V domains shown)
VH: QVQLVQSGAEVKKPGASVKVSCKVSGYTLTELSMHWVRQAPGKGLEWMGGFDPEDVETIYAQKFQGRVTMTEDTSTDTAYMELSSLRSEDTAVYYCATGVAVVGTSHSYYYYYGMDVWGQGTTVTVSS
VL: DIQMTQSPSSLSASVGDRVTITCRASQGISNYLAWYQQKPGKVPKLLIYAASTLQSGVPSRFSGSGSGTDFTLTISSLQPEDVATYYCQKYNSAPFTFGPGTKVDIK

Substitutions are numbered along the chain they refer to.

For one assay, the target named is SARS-CoV-2 full length spike protein, D614G mutant, expressed on the surface of CHO cells (SARS-CoV-2, UniProt P0DTC2 14-1273).
In the case of B1, the “median fluorescence intensity, fold over isotype control” value (“median fluorescence intensity, fold” for short) stood at 59.7 fold over isotype.
Regarding B2, the “median fluorescence intensity, fold” value worked out at 24.5 fold over isotype.

Another assay addresses SARS-CoV-2 full length spike protein, V367F mutant, expressed on the surface of CHO cells (SARS-CoV-2, UniProt P0DTC2 14-1273).
In the case of B1, the “median fluorescence intensity, fold” value is 29.6 fold over isotype.
B2: the “median fluorescence intensity, fold” value worked out at 11.3 fold over isotype.

For the next assay, the target named is SARS-CoV-2 full length spike protein, V367F mutant (SARS-CoV-2, UniProt P0DTC2 14-1273).
Take B3: the “median fluorescence fold over isotype control” value (“median fluorescence fold” below) amounted to 29.9 fold over isotype.
As to B4, the “median fluorescence fold” value turned out to be 44 fold over isotype.
On the same count and under the same terms, the result for B5 reads 7.17 fold over isotype.
With B6, the “median fluorescence fold” value stood at 6.24 fold over isotype.
On to B7, for which the “median fluorescence fold” value is 39.4 fold over isotype.
The same measure, in the same setting: the figure for B8 is 36.9 fold over isotype; for B9 it is 12.3 fold over isotype.
Still for that read-out and setting: the result for B10 reads 5.79 fold over isotype.
With B11, the “median fluorescence fold” value was 6.89 fold over isotype.
Take B12: the “median fluorescence fold” value turned out to be 27.4 fold over isotype.
Consider B13, for which the “median fluorescence fold” value came out at 38.3 fold over isotype.
With B14, the “median fluorescence fold” value came to 32.3 fold over isotype.

For the next assay, the target named is SARS-CoV-2 full length spike protein, D614G mutant (SARS-CoV-2, UniProt P0DTC2 14-1273).
Regarding B3, the “median fluorescence fold” value amounted to 6.29 fold over isotype.
As for B4, the “median fluorescence fold” value turned out to be 71.2 fold over isotype.
Consider B5, for which the “median fluorescence fold” value was 15.8 fold over isotype.
In the case of B6, the “median fluorescence fold” value stood at 14.9 fold over isotype.
Same read-out and setting: the result for B7 reads 7.41 fold over isotype.
For the molecule B8, the “median fluorescence fold” value worked out at 68.1 fold over isotype.
For B9, the “median fluorescence fold” value turned out to be 23.1 fold over isotype.
In the case of B10, the “median fluorescence fold” value was determined as 13.3 fold over isotype.
On to B11, for which the “median fluorescence fold” value stood at 27.8 fold over isotype.
As for B12, the “median fluorescence fold” value came to 6.23 fold over isotype.
On to B13, for which the “median fluorescence fold” value was 9.17 fold over isotype.
Same read-out and setting: the result for B14 reads 8.24 fold over isotype.

For another assay, the target named is SARS-CoV-2 full length spike protein, V367F mutant, expressed on CHO cells (SARS-CoV-2, UniProt P0DTC2 14-1273).
On to B15, for which the “median fluorescence fold” value came to 27.4 fold over isotype.
Consider B16, for which the “median fluorescence fold” value stood at 7.64 fold over isotype.
On to B17, for which the “median fluorescence fold” value came out at 35.5 fold over isotype.
On to B18, for which the “median fluorescence fold” value stood at 30.6 fold over isotype.
In the case of B19, the “median fluorescence fold” value is 46.9 fold over isotype.

For another assay, the target named is SARS-CoV-2 full length spike protein, D614G mutant, expressed on CHO cells (SARS-CoV-2, UniProt P0DTC2 14-1273).
With B15, the “median fluorescence fold” value turned out to be 6.02 fold over isotype.
Turning to B16, the “median fluorescence fold” value amounted to 17.9 fold over isotype.
In the case of B17, the “median fluorescence fold” value turned out to be 8.76 fold over isotype.
As to B18, the “median fluorescence fold” value turned out to be 70.1 fold over isotype.
Consider B19, for which the “median fluorescence fold” value was 67.8 fold over isotype.
